The experiment addresses Wild-type Microplasmin (human) (UniProt P00747).
Chain of UniProt P00747 (P00747 whole entry): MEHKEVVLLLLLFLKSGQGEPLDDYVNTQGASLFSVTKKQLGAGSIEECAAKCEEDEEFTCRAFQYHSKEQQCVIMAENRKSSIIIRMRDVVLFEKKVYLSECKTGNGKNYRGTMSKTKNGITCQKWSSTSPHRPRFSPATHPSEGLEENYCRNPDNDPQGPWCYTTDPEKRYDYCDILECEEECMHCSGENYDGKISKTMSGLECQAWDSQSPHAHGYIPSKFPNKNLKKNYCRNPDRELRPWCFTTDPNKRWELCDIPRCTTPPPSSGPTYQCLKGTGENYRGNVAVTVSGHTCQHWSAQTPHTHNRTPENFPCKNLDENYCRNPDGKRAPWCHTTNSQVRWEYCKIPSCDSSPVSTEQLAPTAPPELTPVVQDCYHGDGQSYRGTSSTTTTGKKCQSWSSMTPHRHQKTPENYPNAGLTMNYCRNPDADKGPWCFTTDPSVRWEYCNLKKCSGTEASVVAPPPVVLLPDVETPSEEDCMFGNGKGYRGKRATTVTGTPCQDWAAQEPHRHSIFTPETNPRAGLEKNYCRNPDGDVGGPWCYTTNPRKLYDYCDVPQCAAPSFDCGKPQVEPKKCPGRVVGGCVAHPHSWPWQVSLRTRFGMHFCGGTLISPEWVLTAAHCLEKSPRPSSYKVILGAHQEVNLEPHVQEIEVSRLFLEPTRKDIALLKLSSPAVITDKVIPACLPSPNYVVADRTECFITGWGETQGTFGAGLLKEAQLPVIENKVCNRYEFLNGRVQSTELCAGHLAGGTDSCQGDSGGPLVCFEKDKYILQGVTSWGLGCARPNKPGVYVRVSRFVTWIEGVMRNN

B1: α2-antiplasmin (natural protein)
chain: NQEQVSPLTLLKLGNQEPGGQTALKSPPGVCSRDPTPEQTHRLARAMMAFTADLFSLVAQTSTCPNLILSPLSVALALSHLALGAQNHTLQRLQQVLHAGSGPCLPHLLSRLCQDLGPGAFRLAARMYLQKGFPIKEDFLEQSEQLFGAKPVSLTGKQEDDLANINQWVKEATEGKIQEFLSGLPEDTVLLLLNAIHFQGFWRNKFDPSLTQRDSFHLDEQFTVPVEMMQARTYPLRWFLLEQPEIQVAHFPFKNNMSFVVLVPTHFEWNVSQVLANLSWDTLHPPLVWERPTKVRLPKLYLKHQMDLVATLSQLGLQELFQAPDLRGISEQSLVVSGVQHQSTLELSEVGVEAAAATSIAMSRMSLSSFSVNRPFLFFIFEDTTGLPLFVGSVRNPNPSAPRELKEQQDSPGNKDFLQSLKGFPRGDKLFGPDLKLVPPMEEDYPQFGSPK
B1 registered an In vitro half-life of inactivation by α2-antiplasmin: residual amidolytic activity (Chromozym PL, 405nm) of 20nM microplasmin with 60nM antiplasmin, 100mM sodium phosphate pH 7.2, 25°C, 15sec-30 min of 5 min.
